Key:
[1] = biological target: ΔCRD3-TNFR2 protein (with CRD3 deletion), on CHO-S cells (human) (UniProt P20333); assay: FACS on CHO-S cells with ΔCRD3-TNFR2, secondary antibody alone (background control)
[2] = biological target: ΔCRD2-TNFR2 protein (with CRD2 deletion), on CHO-S cells (human) (UniProt P20333); assay: FACS on CHO-S cells with ΔCRD2-TNFR2, secondary antibody alone (background control)
[3] = biological target: ΔCRD4-TNFR2 protein (with CRD4 deletion), on CHO-S cells (human) (UniProt P20333); assay: FACS on CHO-S cells with ΔCRD4-TNFR2, secondary antibody alone (background control)
Chain of ΔCRD4-TNFR2 protein (with CRD4 deletion), on CHO-S cells (human) (P20333 other isoform, or with tags, fused parts or gaps mutant): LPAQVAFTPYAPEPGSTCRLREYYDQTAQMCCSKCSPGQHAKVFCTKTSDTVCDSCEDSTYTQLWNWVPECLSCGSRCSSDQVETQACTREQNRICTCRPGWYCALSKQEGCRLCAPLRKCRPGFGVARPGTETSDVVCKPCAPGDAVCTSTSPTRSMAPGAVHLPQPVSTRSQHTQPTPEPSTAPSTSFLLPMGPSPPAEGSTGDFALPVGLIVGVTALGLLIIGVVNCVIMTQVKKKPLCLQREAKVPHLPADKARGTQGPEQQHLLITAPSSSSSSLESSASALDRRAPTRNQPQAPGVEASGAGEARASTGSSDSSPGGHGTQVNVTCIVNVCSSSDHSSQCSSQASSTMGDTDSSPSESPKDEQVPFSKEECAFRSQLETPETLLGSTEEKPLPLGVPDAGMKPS

[4] = biological target: ΔCRD1-TNFR2 protein (with CRD1 deletion), on CHO-S cells (human) (UniProt P20333); assay: FACS on CHO-S cells with ΔCRD1-TNFR2, secondary antibody alone (background control)
Chain of ΔCRD1-TNFR2 protein (with CRD1 deletion), on CHO-S cells (human) (P20333 other isoform, or with tags, fused parts or gaps mutant): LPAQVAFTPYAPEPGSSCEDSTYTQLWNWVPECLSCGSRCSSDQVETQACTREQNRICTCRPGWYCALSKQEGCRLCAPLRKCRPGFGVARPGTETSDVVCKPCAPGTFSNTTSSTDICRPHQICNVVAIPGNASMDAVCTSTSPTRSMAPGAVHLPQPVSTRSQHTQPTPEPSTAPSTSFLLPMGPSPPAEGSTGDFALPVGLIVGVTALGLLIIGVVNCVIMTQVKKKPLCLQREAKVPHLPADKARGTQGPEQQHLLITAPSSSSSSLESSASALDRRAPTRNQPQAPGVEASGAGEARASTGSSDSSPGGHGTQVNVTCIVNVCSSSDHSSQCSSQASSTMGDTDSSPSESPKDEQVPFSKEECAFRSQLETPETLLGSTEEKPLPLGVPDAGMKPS

Chain of ΔCRD2-TNFR2 protein (with CRD2 deletion), on CHO-S cells (human) (P20333 other isoform, or with tags, fused parts or gaps mutant): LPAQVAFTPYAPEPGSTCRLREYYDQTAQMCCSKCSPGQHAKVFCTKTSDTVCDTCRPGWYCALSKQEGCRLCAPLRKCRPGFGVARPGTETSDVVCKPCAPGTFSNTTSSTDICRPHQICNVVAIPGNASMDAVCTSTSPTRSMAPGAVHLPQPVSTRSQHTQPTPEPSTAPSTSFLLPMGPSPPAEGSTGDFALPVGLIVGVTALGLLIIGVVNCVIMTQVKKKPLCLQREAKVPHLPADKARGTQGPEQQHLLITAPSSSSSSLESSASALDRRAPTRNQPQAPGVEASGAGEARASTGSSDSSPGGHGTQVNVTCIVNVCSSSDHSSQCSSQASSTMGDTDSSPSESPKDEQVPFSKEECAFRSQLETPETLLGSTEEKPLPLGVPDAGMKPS
Chain of ΔCRD3-TNFR2 protein (with CRD3 deletion), on CHO-S cells (human) (P20333 other isoform, or with tags, fused parts or gaps mutant): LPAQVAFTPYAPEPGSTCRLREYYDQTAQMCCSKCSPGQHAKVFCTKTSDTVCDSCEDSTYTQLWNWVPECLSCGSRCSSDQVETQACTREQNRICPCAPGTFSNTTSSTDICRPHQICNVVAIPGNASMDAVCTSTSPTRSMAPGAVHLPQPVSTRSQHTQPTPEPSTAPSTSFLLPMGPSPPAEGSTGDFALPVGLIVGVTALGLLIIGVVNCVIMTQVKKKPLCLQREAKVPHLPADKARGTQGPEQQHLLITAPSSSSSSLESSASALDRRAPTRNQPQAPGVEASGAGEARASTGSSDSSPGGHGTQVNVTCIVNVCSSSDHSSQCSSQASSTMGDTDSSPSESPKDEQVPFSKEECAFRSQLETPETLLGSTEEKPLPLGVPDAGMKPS

- positive rate of binding (% of cells) [1]: 0.62%
- positive rate of binding (% of cells) [2]: 7.33%
- positive rate of binding (% of cells) [3]: 1.02%
- positive rate of binding (% of cells) [4]: 10.2%
Substance: Secondary antibody (Alexa Fluor 647 AffiniPure F(ab')2 Fragment Goat Anti-Human IgG, Fcγ fragment specific, Jackson ImmunoResearch)
